Measurements taken from patent US20090081760A1, “DMO METHODS AND COMPOSITIONS” (priority 2007, published 2009).

System: Dicamba
Experiment: LC-MS/MS screen for oxygenase (DMO) activity: E. coli liquid culture expressing ddmC or a variant, grown with dicamba, DCSA detected in supernatant
Assay type: cell-based
Details: for Changed to: M % of control for set / Changed to: M DCSA values (ppm): residue changed to M; for Changed to: C % of control for set / Changed to: C DCSA values (ppm): residue changed to C
Experimental: An LC-MS/MS screen for oxygenase activity was used to detect DCSA. The method comprises a two stage process made up of a liquid cell culture assay coupled to an LC-MS/MS detection screen. In the liquid cell culture stage, the gene of interest, i.e. ddmC or a variant thereof, was cloned under the control of a promoter (e.g. T7 promoter, pET vector) and transformed into an E. coli host cell. […] Cells were spun down, and the supernatant was filtered and diluted tenfold with the inclusion of 8 μM salicylic acid as an internal standard. Samples of the supernatant, and/or optionally the cell pellet (or lysate thereof), from this first stage were analyzed for DCSA levels (i.e. DMO activity level) by LC-MS/MS.
While many oxygenases such as DMO are multi component systems requiring other helper enzymes for activity, it was observed that components in E. coli may substitute for these helper enzymes or functions. Thus, transformation of E. coli with a single “oxygenase” gene from a multi component system nevertheless results in measurable activity for the gene alone, even without other components being co-transformed into the same E. coli cell. Activity is observed because, in E. coli cells, surrogates with homology to the original helper enzymes (e.g. ferredoxin and reductase) may be utilized. Additionally, E. coli can take up substrate (e.g. dicamba) and excrete the product (e.g. DCSA) into the media supernatant, allowing for the speed and simplicity of this cell based screen. No lysis of cells is required. Alternatively, an HPLC-based assay for DMO activity may be utilized. Promising variants were used as templates for additional rounds DOT and or other mutagenesis methods in an iterative manner. […]
Sets of saturation mutagenesis primers (using NNS degenerate triplets) for 31 residues at the active site and involved in the electron transfer chain as indicated in Table 28 were designed and used to introduce mutations into the ddmC gene by means of terminated PCR on the template (ddmC gene with His tag and two changes, T2S+I123L (SEQ ID NO:23) in pMV4 vector (Modular Genetics, Cambridge, Mass.). Resulting PCR products were treated with DpnI to remove the parental template molecules, self-annealed and transformed into chemically competent E. coli Top10 F′ (Invitrogen, Carlsbad, Calif.). Standard DNA cloning methods were utilized (e.g. Sambrook et al., 1989). The individual colonies were grown in liquid culture. DNA was isolated by a standard miniprep procedure and used to transform the chemically competent E. coli (e.g. BL21(DE3)). […] Cells were spun down, and the supernatant was filtered and diluted tenfold with 8 μM salicylic acid as an internal standard. The DCSA levels (i.e. DMO activity level) were determined by LC-MS analysis as described above (e.g. Example 8).
Additional single substitution variants of DMO at residues corresponding to interaction (e.g. subunit interface) domains and the ferredoxin binding site were also prepared and assayed for their effect on enzymatic activity (See also Examples 8A, 8B) by the LC/MS screen. In most cases shown in Table 29, one conservative and one neutral substitution was tried at a given residue.
Table 30 lists DMO activity data (by LC/MS screen) for 58 variants relative to ddmC_M—6his (the wild type ddmC sequence with an N-terminal His tag (SEQ ID NO: 154), while Table 31 lists DMO activity data (by LC/MS screen) for 1685 variants relative to ddmC_RLE6his (the wild type ddmC sequence with T2S and I123L mutations (SEQ ID NO:23), and a C-terminal 6×His tag). The numbering of residues is based on the numbering found in SEQ ID NO:2 or SEQ ID NO:3.

[1] = DCSA relative to control average of the data set

B1: G266S: DMO variant from NNS mutagenesis, more active than the control (protein)
chain: MATFVRNAWYVAALPEELSEKPLGRTILDTPLALYRQPDGVVAALLDICPHRFAPLSDGILVNGHLQCPYHGLEFDGGGQCVHNPHGNGARPASLNVRSFPVVERDALIWICPGDPALADPGAIPDFGCRVDPAYRTVGGYGHVDCNYKLLVDNLMDLGHAQYVHRANAQTDAFDRLEREVIVGDGEIQALMKIPGGTPSVLMAKFLRGANTPVDAWNDIRWNKVSAMLNFIAVAPEGTPKEQSIHSRGTHILTPETEASCHYFFSSSRNFGIDDPEMDGVLRSWQAQALVKEDKVVVEAIERRRAYVEANGIRPAMLSCDEAAVRVSREIEKLEQLEAARLEHHHHHH
For B1, the “DMO activity of NNS mutagenesis variants (in words)” value (NNS saturation mutagenesis variants, 200 to 500 μM Dicamba, 30 hrs, 37° C.) was “more active than the control”, the “Changed to: S % of control for set” value (residue changed to S, DCSA relative to control average of the data set) was 130.25% and the “Changed to: S DCSA values (ppm)” value (residue changed to S, mean +/− SD (n)) was 34.63 +/− 4.14 (4) ppm.

B2: A287E: DMO substitution variant (protein)
chain: MATFVRNAWYVAALPEELSEKPLGRTILDTPLALYRQPDGVVAALLDICPHRFAPLSDGILVNGHLQCPYHGLEFDGGGQCVHNPHGNGARPASLNVRSFPVVERDALIWICPGDPALADPGAIPDFGCRVDPAYRTVGGYGHVDCNYKLLVDNLMDLGHAQYVHRANAQTDAFDRLEREVIVGDGEIQALMKIPGGTPSVLMAKFLRGANTPVDAWNDIRWNKVSAMLNFIAVAPEGTPKEQSIHSRGTHILTPETEASCHYFFGSSRNFGIDDPEMDGVLRSWQEQALVKEDKVVVEAIERRRAYVEANGIRPAMLSCDEAAVRVSREIEKLEQLEAARLEHHHHHH
With B2 the “Changed to: E % of control for set” value (residue changed to E, DCSA relative to control average of the data set) was 113.40% and the “Changed to: E DCSA values (ppm)” value (residue changed to E, mean +/− SD (n)) was 30.15 +/− 2.76 (4) ppm.

B3: N218M: DMO substitution variant (protein)
chain: MATFVRNAWYVAALPEELSEKPLGRTILDTPLALYRQPDGVVAALLDICPHRFAPLSDGILVNGHLQCPYHGLEFDGGGQCVHNPHGNGARPASLNVRSFPVVERDALIWICPGDPALADPGAIPDFGCRVDPAYRTVGGYGHVDCNYKLLVDNLMDLGHAQYVHRANAQTDAFDRLEREVIVGDGEIQALMKIPGGTPSVLMAKFLRGANTPVDAWMDIRWNKVSAMLNFIAVAPEGTPKEQSIHSRGTHILTPETEASCHYFFGSSRNFGIDDPEMDGVLRSWQAQALVKEDKVVVEAIERRRAYVEANGIRPAMLSCDEAAVRVSREIEKLEQLEAARLEHHHHHH
B3 was tested, and the “Changed to: M % of control for set” value [1] was 106.92% and the “Changed to: M DCSA values (ppm)” value (mean +/− SD (n)) was 40.87 +/− 0.62 (2) ppm.

B4: R248C: DMO substitution variant (protein)
chain: MATFVRNAWYVAALPEELSEKPLGRTILDTPLALYRQPDGVVAALLDICPHRFAPLSDGILVNGHLQCPYHGLEFDGGGQCVHNPHGNGARPASLNVRSFPVVERDALIWICPGDPALADPGAIPDFGCRVDPAYRTVGGYGHVDCNYKLLVDNLMDLGHAQYVHRANAQTDAFDRLEREVIVGDGEIQALMKIPGGTPSVLMAKFLRGANTPVDAWNDIRWNKVSAMLNFIAVAPEGTPKEQSIHSCGTHILTPETEASCHYFFGSSRNFGIDDPEMDGVLRSWQAQALVKEDKVVVEAIERRRAYVEANGIRPAMLSCDEAAVRVSREIEKLEQLEAARLEHHHHHH
B4 was tested, and the “Changed to: C % of control for set” value [1] was 132.69% and the “Changed to: C DCSA values (ppm)” value (mean +/− SD (n)) was 35.28 +/− 12.15 (4) ppm.

B5: N218H: DMO substitution variant (protein)
chain: MATFVRNAWYVAALPEELSEKPLGRTILDTPLALYRQPDGVVAALLDICPHRFAPLSDGILVNGHLQCPYHGLEFDGGGQCVHNPHGNGARPASLNVRSFPVVERDALIWICPGDPALADPGAIPDFGCRVDPAYRTVGGYGHVDCNYKLLVDNLMDLGHAQYVHRANAQTDAFDRLEREVIVGDGEIQALMKIPGGTPSVLMAKFLRGANTPVDAWHDIRWNKVSAMLNFIAVAPEGTPKEQSIHSRGTHILTPETEASCHYFFGSSRNFGIDDPEMDGVLRSWQAQALVKEDKVVVEAIERRRAYVEANGIRPAMLSCDEAAVRVSREIEKLEQLEAARLEHHHHHH
In the case of B5, the “Changed to: H % of control for set” value (residue changed to H, DCSA relative to control average of the data set) is reported as 104.38% and the “Changed to: H DCSA values (ppm)” value (residue changed to H, mean +/− SD (n)) is reported as 39.9 +/− 9.75 (4) ppm.

B6: A287M: DMO substitution variant (protein)
chain: MATFVRNAWYVAALPEELSEKPLGRTILDTPLALYRQPDGVVAALLDICPHRFAPLSDGILVNGHLQCPYHGLEFDGGGQCVHNPHGNGARPASLNVRSFPVVERDALIWICPGDPALADPGAIPDFGCRVDPAYRTVGGYGHVDCNYKLLVDNLMDLGHAQYVHRANAQTDAFDRLEREVIVGDGEIQALMKIPGGTPSVLMAKFLRGANTPVDAWNDIRWNKVSAMLNFIAVAPEGTPKEQSIHSRGTHILTPETEASCHYFFGSSRNFGIDDPEMDGVLRSWQMQALVKEDKVVVEAIERRRAYVEANGIRPAMLSCDEAAVRVSREIEKLEQLEAARLEHHHHHH
B6 was tested, and the “Changed to: M % of control for set” value [1] was 149.32% and the “Changed to: M DCSA values (ppm)” value (mean +/− SD (n)) was 39.7 +/− 5.86 (4) ppm.

B7: A169M: DMO substitution variant (protein)
chain: MATFVRNAWYVAALPEELSEKPLGRTILDTPLALYRQPDGVVAALLDICPHRFAPLSDGILVNGHLQCPYHGLEFDGGGQCVHNPHGNGARPASLNVRSFPVVERDALIWICPGDPALADPGAIPDFGCRVDPAYRTVGGYGHVDCNYKLLVDNLMDLGHAQYVHRANMQTDAFDRLEREVIVGDGEIQALMKIPGGTPSVLMAKFLRGANTPVDAWNDIRWNKVSAMLNFIAVAPEGTPKEQSIHSRGTHILTPETEASCHYFFGSSRNFGIDDPEMDGVLRSWQAQALVKEDKVVVEAIERRRAYVEANGIRPAMLSCDEAAVRVSREIEKLEQLEAARLEHHHHHH
In the case of B7, the “Changed to: M % of control for set” value [1] is reported as 108.70% and the “Changed to: M DCSA values (ppm)” value (mean +/− SD (n)) is reported as 28.9 +/− 5.06 (4) ppm.

B8: A287C: DMO substitution variant (protein)
chain: MATFVRNAWYVAALPEELSEKPLGRTILDTPLALYRQPDGVVAALLDICPHRFAPLSDGILVNGHLQCPYHGLEFDGGGQCVHNPHGNGARPASLNVRSFPVVERDALIWICPGDPALADPGAIPDFGCRVDPAYRTVGGYGHVDCNYKLLVDNLMDLGHAQYVHRANAQTDAFDRLEREVIVGDGEIQALMKIPGGTPSVLMAKFLRGANTPVDAWNDIRWNKVSAMLNFIAVAPEGTPKEQSIHSRGTHILTPETEASCHYFFGSSRNFGIDDPEMDGVLRSWQCQALVKEDKVVVEAIERRRAYVEANGIRPAMLSCDEAAVRVSREIEKLEQLEAARLEHHHHHH
In the case of B8, the “Changed to: C % of control for set” value [1] is reported as 109.56% and the “Changed to: C DCSA values (ppm)” value (mean +/− SD (n)) is reported as 29.13 +/− 5.46 (4) ppm.

B9: R248I: DMO substitution variant (protein)
chain: MATFVRNAWYVAALPEELSEKPLGRTILDTPLALYRQPDGVVAALLDICPHRFAPLSDGILVNGHLQCPYHGLEFDGGGQCVHNPHGNGARPASLNVRSFPVVERDALIWICPGDPALADPGAIPDFGCRVDPAYRTVGGYGHVDCNYKLLVDNLMDLGHAQYVHRANAQTDAFDRLEREVIVGDGEIQALMKIPGGTPSVLMAKFLRGANTPVDAWNDIRWNKVSAMLNFIAVAPEGTPKEQSIHSIGTHILTPETEASCHYFFGSSRNFGIDDPEMDGVLRSWQAQALVKEDKVVVEAIERRRAYVEANGIRPAMLSCDEAAVRVSREIEKLEQLEAARLEHHHHHH
In the case of B9, the “Changed to: I % of control for set” value (residue changed to I, DCSA relative to control average of the data set) is reported as 146.23% and the “Changed to: I DCSA values (ppm)” value (residue changed to I, mean +/− SD (n)) is reported as 38.88 +/− 3.93 (4) ppm.
